# Measurements reported in paper PMC6662822, “Rational drug-design approach supported with thermodynamic studies — a peptide leader for the efficient bi-substrate inhibitor of protein kinase CK2” (Scientific Reports, 2019).
# Where no end group is shown, it is not given here.
# B1: RRRDDDSDDD (peptide)
# peptide: RRRDDDSDDD
# notes: The supplier is named in the methods of the kinase assay; also called CK2 substrate peptide; source: bought: Biaffin GmbH & Co KG
# B2: EETEEE-NH2 (peptide)
# peptide: EETEEE-NH2
# notes: source: synthetic peptide (solid-phase synthesis, purified by HPLC); in the pull-down as a member of the synthetic library
# B3: KESEEE-NH2 (peptide)
# peptide: KESEEE-NH2
# notes: source: synthetic peptide (solid-phase synthesis, purified by HPLC)
# B4: KETEEE-NH2 (peptide)
# peptide: KETEEE-NH2
# notes: as for B2
# B5: EESEEE-NH2 (peptide)
# peptide: EESEEE-NH2
# notes: as for B2
# What was measured:
# Conditions in all cases: both partners purified
# [1] = target: T1, catalytic subunit of human protein kinase CK2 (human, UniProt P68400 1-391, NT-647 dye (NanoTemper Protein Labeling Kit RED), in the MST experiments only); experiment: MST; hCK2α labelled with NT-647 dye, 50 nM; ligand 100 nM-10 mM; thermophoresis with temperature jump; global fit of three independent pseudo-titrations
# T1 construct: catalytic subunit (alpha) of human protein kinase CK2; The His tag is named only for the pull-down (immobilised on cobalt resin); also called hCK2α; CK2α
# [2] = target: T1, catalytic subunit of human protein …; experiment: other fluorescence titration; nanoDSF (Prometheus NT.48): 350 nm/330 nm fluorescence ratio at 25 °C (native protein) against peptide concentration; 2.5 μM hCK2α, peptide 300 nM-10 mM, 25 mM Tris-HCl pH 7, 0.5 M NaCl; single binding site model
# [3] = target: T1, catalytic subunit of human protein …; experiment: MST; as a6, labelled hCK2α in the presence of TBBt (hCK2α/TBBt complex)
# [4] = target: T1, catalytic subunit of human protein …; experiment: other fluorescence titration; nanoDSF as a3, but data at 75 °C: unfolded form of hCK2α
# [5] = target: T1, catalytic subunit of human protein …; experiment: other fluorescence titration; nanoDSF as a3 (25 °C), hCK2α in the presence of TBBt (hCK2α/TBBt complex)
# T1 sequence (P68400 whole entry): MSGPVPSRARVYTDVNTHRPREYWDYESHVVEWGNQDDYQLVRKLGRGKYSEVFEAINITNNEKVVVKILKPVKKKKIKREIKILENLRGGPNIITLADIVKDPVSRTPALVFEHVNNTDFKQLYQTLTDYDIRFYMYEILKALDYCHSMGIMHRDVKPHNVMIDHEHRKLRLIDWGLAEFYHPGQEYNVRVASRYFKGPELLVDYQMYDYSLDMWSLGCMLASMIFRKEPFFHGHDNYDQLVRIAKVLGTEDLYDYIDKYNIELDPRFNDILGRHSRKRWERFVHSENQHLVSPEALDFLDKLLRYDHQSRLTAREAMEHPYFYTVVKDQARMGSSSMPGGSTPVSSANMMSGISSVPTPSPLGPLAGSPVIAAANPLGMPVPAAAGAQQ
Binder,Kd [1] [µM],Kd [2] [µM],Kd [3] [µM],Kd [4] [µM],Kd [5] [µM]
B1,2100 ± 700,–,–,–,–
B2,–,960 ± 30,–,–,–
B3,390 ± 210,350 ± 20,360 ± 230,~1000,450 ± 20
B4,–,950 ± 50,–,–,–
B5,–,1580 ± 60,–,–,–
